# Data: article doi:10.1101/2023.09.20.558697
# Where two headings read alike, the source gives them in different places.
# T1: RokL6-His6 (Streptomyces coelicolor A3(2) M145, UniProt Q9L112 1-399)
# T1 sequence: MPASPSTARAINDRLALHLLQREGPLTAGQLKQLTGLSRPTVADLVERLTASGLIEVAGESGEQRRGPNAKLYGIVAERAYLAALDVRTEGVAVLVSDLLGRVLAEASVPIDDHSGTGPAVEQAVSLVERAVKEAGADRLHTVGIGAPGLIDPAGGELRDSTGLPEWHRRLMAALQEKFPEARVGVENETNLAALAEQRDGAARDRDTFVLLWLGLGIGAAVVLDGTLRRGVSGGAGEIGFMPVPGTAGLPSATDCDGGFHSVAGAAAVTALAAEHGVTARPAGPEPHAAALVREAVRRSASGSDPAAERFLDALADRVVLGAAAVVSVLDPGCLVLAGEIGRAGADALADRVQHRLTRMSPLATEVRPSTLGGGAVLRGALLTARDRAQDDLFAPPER
# B1: RokL6-M3 (dsDNA)
# DNA 1: CGCACCGGTAATCCACTATCGAATTCGCAGGCTCCGGATCCGTTTACGCCGCGGATTGAC
# DNA 2: GTCAATCCGCGGCGTAAACGGATCCGGAGCCTGCGAATTCGATAGTGGATTACCGGTGCG
# B2: RokL6-BS (dsDNA)
# DNA 1: CGCACCGGTAATCCACTATCTATCAGGCAGGCTCCCTGATAGTTTACGCCGCGGATTGAC
# DNA 2: GTCAATCCGCGGCGTAAACTATCAGGGAGCCTGCCTGATAGATAGTGGATTACCGGTGCG
# B3: hrdB-P (dsDNA)
# DNA 1: CGGCCCGCCCGCACCGTCGGCCCATTCCCAAGCCGGTGGTCGGCCCCTGTCCGCCGTGGA
# DNA 2: TCCACGGCGGACAGGGGCCGACCACCGGCTTGGGAATGGGCCGACGGTGCGGGCGGGCCG
# Key:
# Test in all cases: EMSA
# RokL6-His6 [1] = target: T1, RokL6-His6
# RokL6-His6 [2] = target: T1, RokL6-His6; remark: listed apart in the source
# RokL6-His6 [3] = target: T1, RokL6-His6; remark: listed apart in the source
binder,measurement,setting,value
B1,binding result,RokL6-His6 [1],no binding
B2,binding result,RokL6-His6 [2],binds
B3,binding result,RokL6-His6 [3],no binding
